This series has as its system Escherichia coli TOP10. The series is described as follows: shrunken log2 fold change of peptide-encoding DNA abundance (4.5 h post-induction vs induction); higher = less antimicrobial activity (less host growth inhibition). As to conditions: time post-induction: 4.5 h; library: site-saturation at positions 5, 18, 19, 20.
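Further: peptides expressed intracellularly from a pBAD plasmid library in pooled LB shake-flask culture, induced with 0.3% L-arabinose, DNA abundance read by NGS, three biological replicates, DESeq2 with apeglm shrinkage.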

As for RRIRWRPPRLPRPRPRPNLAPRP, the “shrunken log2 fold change” value amounted to 0.0306. Next, RRIRFRPPRLPRPRPRPNSYPRP: -0.372; RRIRRRPPRLPRPRPRPRRPPRP: 0.639; RRIRSRPPRLPRPRPRPHQEPRP: -0.0261. Next, RRIRDRPPRLPRPRPRPTKYPRP: -0.286; RRIRFRPPRLPRPRPRPVPSPRP: -0.162; RRIRLRPPRLPRPRPRPWTPPRP: -0.191. In the case of RRIRVRPPRLPRPRPRPLPFPRP it was -0.367; in that of RRIRMRPPRLPRPRPRPDTQPRP, 0.393; in that of RRIRIRPPRLPRPRPRPEFSPRP, 0.00834. For the sequence RRIRARPPRLPRPRPRPQESPRP, the “shrunken log2 fold change” value was found to be 0.0266. With RRIRYRPPRLPRPRPRPWCEPRP, the “shrunken log2 fold change” value is -0.468. Turning to RRIRMRPPRLPRPRPRPKCNPRP, the “shrunken log2 fold change” value was 0.159. In the case of RRIRQRPPRLPRPRPRPSHQPRP it was -0.0977.

Take RRIRNRPPRLPRPRPRPKHHPRP: the “shrunken log2 fold change” value is -0.487. For RRIRNRPPRLPRPRPRPPLQPRP, the “shrunken log2 fold change” value stood at 0.213. With RRIRSRPPRLPRPRPRPPRWPRP, the “shrunken log2 fold change” value came to 0.722.

Consider RRIRHRPPRLPRPRPRPYWYPRP, for which the “shrunken log2 fold change” value was -1.25.

For the sequence RRIRDRPPRLPRPRPRPPNNPRP, the “shrunken log2 fold change” value was -0.261. Next, RRIRTRPPRLPRPRPRPDCSPRP: -0.239.

As to RRIRFRPPRLPRPRPRPSCSPRP, the “shrunken log2 fold change” value is -0.498. For the sequence RRIRWRPPRLPRPRPRPMPVPRP, the “shrunken log2 fold change” value amounted to 0.346.

For the sequence RRIRHRPPRLPRPRPRPLIPPRP, the “shrunken log2 fold change” value was -0.244.

Consider RRIRCRPPRLPRPRPRPRFCPRP, for which the “shrunken log2 fold change” value came out at 0.071. Next, RRIRKRPPRLPRPRPRPSAAPRP: 0.624; RRIRWRPPRLPRPRPRPIYFPRP: -0.198; RRIRCRPPRLPRPRPRPLWMPRP: -0.378. In the case of RRIRQRPPRLPRPRPRPRLFPRP it was 0.701; in that of RRIRGRPPRLPRPRPRPVAPPRP, 1.18; in that of RRIRVRPPRLPRPRPRPRCWPRP, 0.294. In the case of RRIRGRPPRLPRPRPRPLMMPRP it was 0.647; in that of RRIRHRPPRLPRPRPRPPGRPRP, 0.593. Consider RRIRTRPPRLPRPRPRPFNVPRP, for which the “shrunken log2 fold change” value is -0.029.

Take RRIRRRPPRLPRPRPRPCRWPRP: the “shrunken log2 fold change” value was 0.11. Next, RRIRVRPPRLPRPRPRPADDPRP: 0.203; RRIRLRPPRLPRPRPRPNEVPRP: -0.0062. Next, RRIRYRPPRLPRPRPRPRVEPRP: -0.0337; RRIRNRPPRLPRPRPRPTQLPRP: -0.0336; RRIRWRPPRLPRPRPRPCSQPRP: 0.0161. As for RRIRCRPPRLPRPRPRPWTHPRP, the “shrunken log2 fold change” value was -0.325. Next, RRIRDRPPRLPRPRPRPQYFPRP: 0.0205; RRIRLRPPRLPRPRPRPHWNPRP: -0.315. As to RRIRLRPPRLPRPRPRPQWKPRP, the “shrunken log2 fold change” value turned out to be 0.0162.

RRIRCRPPRLPRPRPRPTAYPRP: the “shrunken log2 fold change” value was -0.137.

On to RRIRQRPPRLPRPRPRPLMIPRP, for which the “shrunken log2 fold change” value was -0.0458.

As to RRIRQRPPRLPRPRPRPCNQPRP, the “shrunken log2 fold change” value is -0.213. Next, RRIRFRPPRLPRPRPRPNIKPRP: -0.504. Next, RRIRYRPPRLPRPRPRPVRTPRP: -0.137; RRIRARPPRLPRPRPRPWCCPRP: 0.104.

Consider RRIRMRPPRLPRPRPRPCHNPRP, for which the “shrunken log2 fold change” value was -0.355. On to RRIRDRPPRLPRPRPRPIRIPRP, for which the “shrunken log2 fold change” value is -0.0935. In the case of RRIRCRPPRLPRPRPRPATFPRP it was -0.331. In the case of RRIRYRPPRLPRPRPRPHSCPRP it was -0.00211; in that of RRIRWRPPRLPRPRPRPALRPRP, 0.243; in that of RRIRLRPPRLPRPRPRPYGFPRP, 0.00785. Next, RRIRTRPPRLPRPRPRPPTMPRP: -0.0279.

Consider RRIRKRPPRLPRPRPRPHPIPRP, for which the “shrunken log2 fold change” value is 0.0828. Next, RRIRHRPPRLPRPRPRPGATPRP: 0.0387; RRIRERPPRLPRPRPRPMQPPRP: -0.0115.

For the sequence RRIRQRPPRLPRPRPRPRQLPRP, the “shrunken log2 fold change” value amounted to 0.0166. In the case of RRIRHRPPRLPRPRPRPNWCPRP it was -0.00989; in that of RRIRKRPPRLPRPRPRPEYQPRP, 0.0313; in that of RRIRFRPPRLPRPRPRPIGRPRP, 0.00988. Next, RRIRTRPPRLPRPRPRPEQSPRP: 0.0803.

Consider RRIRIRPPRLPRPRPRPRNWPRP, for which the “shrunken log2 fold change” value was determined as 0.18.

On to RRIRGRPPRLPRPRPRPLITPRP, for which the “shrunken log2 fold change” value turned out to be 0.676. In the case of RRIRKRPPRLPRPRPRPFFSPRP it was -0.0214; in that of RRIRLRPPRLPRPRPRPAMNPRP, -0.397; in that of RRIRLRPPRLPRPRPRPASTPRP, 0.0489. As to RRIRVRPPRLPRPRPRPLRIPRP, the “shrunken log2 fold change” value was determined as 0.0616.

Take RRIRARPPRLPRPRPRPVTMPRP: the “shrunken log2 fold change” value was 0.102. For RRIRWRPPRLPRPRPRPMQQPRP, the “shrunken log2 fold change” value worked out at 0.056.

With RRIRFRPPRLPRPRPRPHNKPRP, the “shrunken log2 fold change” value was determined as 0.0525.

In the case of RRIRSRPPRLPRPRPRPQSDPRP, the “shrunken log2 fold change” value is -0.0499. Next, RRIRDRPPRLPRPRPRPLLWPRP: 0.754; RRIRSRPPRLPRPRPRPTDVPRP: 0.0781. In the case of RRIRSRPPRLPRPRPRPLGWPRP it was 0.76; in that of RRIRRRPPRLPRPRPRPLEIPRP, 0.0856.

For RRIRVRPPRLPRPRPRPYENPRP, the “shrunken log2 fold change” value is -0.293. Next, RRIRWRPPRLPRPRPRPCNSPRP: -0.281; RRIRVRPPRLPRPRPRPWWKPRP: 0.0375; RRIRIRPPRLPRPRPRPMYMPRP: 0.00884.

RRIRERPPRLPRPRPRPGEEPRP: the “shrunken log2 fold change” value came out at 0.175.

In the case of RRIRNRPPRLPRPRPRPHYDPRP, the “shrunken log2 fold change” value was -0.775. In the case of RRIRNRPPRLPRPRPRPWLNPRP it was -0.00264; in that of RRIRTRPPRLPRPRPRPPTWPRP, 0.0779; in that of RRIRGRPPRLPRPRPRPWTDPRP, -0.211.

As to RRIRARPPRLPRPRPRPIVYPRP, the “shrunken log2 fold change” value is -0.248. Next, RRIRARPPRLPRPRPRPIGDPRP: 0.24; RRIRERPPRLPRPRPRPTGLPRP: 0.235. In the case of RRIRTRPPRLPRPRPRPVRVPRP, the “shrunken log2 fold change” value stood at 0.229. Next, RRIRHRPPRLPRPRPRPQYWPRP: -0.806; RRIRSRPPRLPRPRPRPYTRPRP: -0.304; RRIRIRPPRLPRPRPRPYWPPRP: -0.28. RRIRMRPPRLPRPRPRPFDPPRP: the “shrunken log2 fold change” value stood at 0.0446.

Regarding RRIRFRPPRLPRPRPRPAQTPRP, the “shrunken log2 fold change” value is 0.0962. In the case of RRIRCRPPRLPRPRPRPRDMPRP it was -0.167; in that of RRIRQRPPRLPRPRPRPSHSPRP, -0.102; in that of RRIRIRPPRLPRPRPRPNQHPRP, -0.337.

For RRIRFRPPRLPRPRPRPGFTPRP, the “shrunken log2 fold change” value was -0.187. For RRIRFRPPRLPRPRPRPERCPRP, the “shrunken log2 fold change” value is 0.104. Consider RRIRSRPPRLPRPRPRPKELPRP, for which the “shrunken log2 fold change” value is 0.0175. Next, RRIRLRPPRLPRPRPRPFLTPRP: -0.434. In the case of RRIRPRPPRLPRPRPRPWWIPRP it was -0.243; in that of RRIRVRPPRLPRPRPRPWKFPRP, -0.00968. Next, RRIRERPPRLPRPRPRPAVNPRP: -0.00945. Take RRIRKRPPRLPRPRPRPQVWPRP: the “shrunken log2 fold change” value is -0.0233.

In the case of RRIRARPPRLPRPRPRPQGQPRP, the “shrunken log2 fold change” value is -0.2. For RRIRNRPPRLPRPRPRPETPPRP, the “shrunken log2 fold change” value is 0.36. As to RRIRRRPPRLPRPRPRPYQDPRP, the “shrunken log2 fold change” value was 0.00143. In the case of RRIRDRPPRLPRPRPRPRQRPRP it was 0.708; in that of RRIRSRPPRLPRPRPRPAVRPRP, -0.103.

As for RRIRTRPPRLPRPRPRPEVFPRP, the “shrunken log2 fold change” value was found to be 0.146.

Turning to RRIRSRPPRLPRPRPRPLGGPRP, the “shrunken log2 fold change” value was determined as 0.455.

With RRIRCRPPRLPRPRPRPIDWPRP, the “shrunken log2 fold change” value came out at 0.0664. Next, RRIRVRPPRLPRPRPRPWTPPRP: 0.158; RRIRSRPPRLPRPRPRPMGCPRP: -0.112; RRIRKRPPRLPRPRPRPWYCPRP: -0.339.

For RRIRRRPPRLPRPRPRPCYCPRP, the “shrunken log2 fold change” value is -0.00192.

As for RRIRTRPPRLPRPRPRPSDFPRP, the “shrunken log2 fold change” value is -0.704. As to RRIRDRPPRLPRPRPRPDEVPRP, the “shrunken log2 fold change” value is -0.01.

As to RRIRRRPPRLPRPRPRPHDPPRP, the “shrunken log2 fold change” value is -0.0379. Turning to RRIRHRPPRLPRPRPRPGMLPRP, the “shrunken log2 fold change” value was -0.0926. In the case of RRIRRRPPRLPRPRPRPLEDPRP it was -0.0161. In the case of RRIRIRPPRLPRPRPRPKVTPRP it was -0.386.
